Test results as given in US20230303667A1.
Several values for one entry are separate records, joined by “and”; a condition that tells them apart may be missing. Equal entries are not always repeated.

Target: Ebola virus Full length GP (Ebola virus (strain not stated))
Assay: ELISA on Full length GP

13F6 (antibody) was tested, and the EC50 was 0.004 µg/mL and 0.0027 nM.
